{"source": "paper doi:10.1101/2021.11.23.469700", "about": "“Zika virus-specific IgM elicited during pregnancy exhibits ultrapotent neutralization” (bioRxiv, 2021)", "key": {"SSB": {"biological_target": "T1, SSB (Bos taurus (assumed), UniProt P10881)", "T1 construct": "source: bought: Immunovision, SSB-3000", "T1 sequence (P05455 whole entry)": "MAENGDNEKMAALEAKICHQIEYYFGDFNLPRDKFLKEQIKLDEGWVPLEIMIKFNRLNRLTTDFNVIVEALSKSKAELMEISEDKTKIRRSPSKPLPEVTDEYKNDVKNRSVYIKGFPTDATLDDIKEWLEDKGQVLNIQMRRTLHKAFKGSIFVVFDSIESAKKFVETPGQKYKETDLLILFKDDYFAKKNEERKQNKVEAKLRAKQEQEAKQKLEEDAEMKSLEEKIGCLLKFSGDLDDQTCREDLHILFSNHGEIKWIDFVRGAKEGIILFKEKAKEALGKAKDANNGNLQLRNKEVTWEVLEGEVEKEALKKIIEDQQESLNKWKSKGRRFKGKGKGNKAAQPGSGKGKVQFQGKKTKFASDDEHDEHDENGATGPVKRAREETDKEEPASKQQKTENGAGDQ", "assay": "ELISA; autoantigen ELISA: purified antigens coated in 0.1M sodium bicarbonate; mAbs in 3-fold serial dilutions from 10 ug/ml, 1 hour at room temperature; HRP anti-human IgG, IgM and H+L", "conditions": "both partners purified"}, "Centromere B": {"biological_target": "T2, Centromere B (Homo sapiens, UniProt P07199)", "T2 construct": "source: bought: Prospec, PRO-390", "T2 sequence (P07199 whole entry)": "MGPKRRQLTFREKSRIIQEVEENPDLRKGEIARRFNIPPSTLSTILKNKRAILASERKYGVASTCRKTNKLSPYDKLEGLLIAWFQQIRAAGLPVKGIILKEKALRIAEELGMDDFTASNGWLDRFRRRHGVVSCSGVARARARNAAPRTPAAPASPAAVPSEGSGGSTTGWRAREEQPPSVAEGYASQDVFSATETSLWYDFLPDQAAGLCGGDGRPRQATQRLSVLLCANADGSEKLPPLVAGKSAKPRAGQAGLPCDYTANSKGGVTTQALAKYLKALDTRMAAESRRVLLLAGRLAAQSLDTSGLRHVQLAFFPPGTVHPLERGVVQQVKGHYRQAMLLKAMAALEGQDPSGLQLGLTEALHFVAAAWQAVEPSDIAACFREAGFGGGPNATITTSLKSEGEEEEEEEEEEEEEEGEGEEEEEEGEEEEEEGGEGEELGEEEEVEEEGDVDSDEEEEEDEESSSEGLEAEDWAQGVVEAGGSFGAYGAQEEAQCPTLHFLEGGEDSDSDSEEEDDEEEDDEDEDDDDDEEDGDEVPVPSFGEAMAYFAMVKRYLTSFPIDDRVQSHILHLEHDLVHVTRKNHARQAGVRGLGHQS", "assay": "ELISA; autoantigen ELISA: purified antigens coated in 0.1M sodium bicarbonate; mAbs in 3-fold serial dilutions from 10 ug/ml, 1 hour at room temperature; HRP anti-human IgG, IgM and H+L", "conditions": "both partners purified"}, "Jo-1": {"biological_target": "Jo-1 (Bos taurus (assumed), UniProt Q2KI84)", "sequence (P12081 whole entry)": "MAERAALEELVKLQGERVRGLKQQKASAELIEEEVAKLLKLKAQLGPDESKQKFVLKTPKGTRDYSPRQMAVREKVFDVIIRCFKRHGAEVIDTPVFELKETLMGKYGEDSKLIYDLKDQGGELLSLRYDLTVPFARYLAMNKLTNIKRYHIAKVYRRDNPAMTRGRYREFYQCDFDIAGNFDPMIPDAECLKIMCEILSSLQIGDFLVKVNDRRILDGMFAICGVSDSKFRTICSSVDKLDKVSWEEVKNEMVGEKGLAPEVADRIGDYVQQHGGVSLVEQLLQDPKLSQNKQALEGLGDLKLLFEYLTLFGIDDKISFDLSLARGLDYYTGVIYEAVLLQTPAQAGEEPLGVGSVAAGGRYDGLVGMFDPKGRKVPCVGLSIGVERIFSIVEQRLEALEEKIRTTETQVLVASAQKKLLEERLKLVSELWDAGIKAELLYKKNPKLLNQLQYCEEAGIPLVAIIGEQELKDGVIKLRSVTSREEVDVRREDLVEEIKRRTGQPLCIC", "assay": "ELISA; autoantigen ELISA: purified antigens coated in 0.1M sodium bicarbonate; mAbs in 3-fold serial dilutions from 10 ug/ml, 1 hour at room temperature; HRP anti-human IgG, IgM and H+L", "conditions": "both partners purified"}, "Scl-70": {"biological_target": "T3, Scl-70 (Bos taurus (assumed), UniProt A0AAA9TV68)", "T3 construct": "source: bought: Immunovision, SCL-3000", "T3 sequence (P11387 whole entry)": "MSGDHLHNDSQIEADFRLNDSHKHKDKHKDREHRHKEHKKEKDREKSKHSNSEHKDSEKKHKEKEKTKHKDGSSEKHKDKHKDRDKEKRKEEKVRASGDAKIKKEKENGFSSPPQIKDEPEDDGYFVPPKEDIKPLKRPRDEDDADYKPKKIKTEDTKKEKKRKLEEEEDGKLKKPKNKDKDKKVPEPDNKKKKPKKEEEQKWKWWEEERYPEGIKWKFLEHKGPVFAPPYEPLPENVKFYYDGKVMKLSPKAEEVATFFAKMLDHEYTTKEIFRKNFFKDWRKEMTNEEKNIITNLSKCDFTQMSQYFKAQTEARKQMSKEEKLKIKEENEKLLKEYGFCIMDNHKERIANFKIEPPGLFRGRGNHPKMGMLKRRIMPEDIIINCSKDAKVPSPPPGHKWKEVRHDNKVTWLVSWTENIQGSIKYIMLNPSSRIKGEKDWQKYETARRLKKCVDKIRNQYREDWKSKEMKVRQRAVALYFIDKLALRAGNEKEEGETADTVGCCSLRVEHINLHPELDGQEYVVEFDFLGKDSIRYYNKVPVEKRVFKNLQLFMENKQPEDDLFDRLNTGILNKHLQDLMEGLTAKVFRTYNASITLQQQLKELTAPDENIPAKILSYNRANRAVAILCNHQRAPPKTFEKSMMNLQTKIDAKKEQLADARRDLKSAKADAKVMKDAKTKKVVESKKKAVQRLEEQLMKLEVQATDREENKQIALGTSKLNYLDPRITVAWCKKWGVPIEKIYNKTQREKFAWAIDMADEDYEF", "assay": "ELISA; autoantigen ELISA: purified antigens coated in 0.1M sodium bicarbonate; mAbs in 3-fold serial dilutions from 10 ug/ml, 1 hour at room temperature; HRP anti-human IgG, IgM and H+L", "conditions": "both partners purified"}, "[1]": {"biological_target": "T4, ZIKV H/PF/2013 envelope (E) protein monomer (Zika virus H/PF/2013, UniProt A0A024B7W1, strain)", "T4 construct": "also called ZIKV E monomer", "assay": "ELISA; recombinant E protein ELISA: DH1017 mAbs immobilised at 0.5 ug/mL in TBS; his-tagged recombinant E protein in 2-fold dilutions from 20 ug/mL, 1 hour at 37°C; anti-his HRP; OD450", "conditions": "both partners purified"}, "[2]": {"biological_target": "T5, ZIKV H/PF/2013 envelope (E) protein dimer (Zika virus H/PF/2013, UniProt A0A024B7W1, strain)", "T5 construct": "also called ZIKV E dimer; his-tagged recombinant E protein dimer; source: recombinant", "assay": "ELISA; recombinant E protein ELISA: DH1017 mAbs immobilised at 0.5 ug/mL in TBS; his-tagged recombinant E protein in 2-fold dilutions from 20 ug/mL, 1 hour at 37°C; anti-his HRP; OD450", "conditions": "both partners purified"}, "DENV4 (H241) virion": {"biological_target": "DENV4 (H241) virion (Dengue virus 4 H241, UniProt Q58HT7, strain)", "assay": "ELISA; virion capture ELISA: virions captured on plates coated with 4G2 antibody; purified mAbs in 5-fold serial dilutions from 100 ug/mL, 1 hour at 37°C; HRP anti-human Ig; OD450", "conditions": "one partner purified"}, "[3]": {"biological_target": "T6, whole Zika PRVABC59 virion (Zika virus PRVABC59, UniProt A0A0X1LH65, strain)", "T6 construct": "also called ZIKV PRVABC59; whole ZIKV virion; source: ZIKV PRVABC59 from BEI, grown in Vero-81 cells, filtered cell supernatant", "assay": "ELISA; virion capture ELISA: virions captured on plates coated with 4G2 antibody; purified mAbs in 5-fold serial dilutions from 100 ug/mL, 1 hour at 37°C; HRP anti-human Ig; OD450", "conditions": "one partner purified"}, "DENV1 (Hawaii) virion": {"biological_target": "T7, DENV1 (Hawaii) virion (Dengue virus 1 Hawaii (BEI NR-82), UniProt B5AGU1, strain)", "T7 construct": "also called DENV1 (Hawaii NR-82)", "assay": "ELISA; virion capture ELISA: virions captured on plates coated with 4G2 antibody; purified mAbs in 5-fold serial dilutions from 100 ug/mL, 1 hour at 37°C; HRP anti-human Ig; OD450", "conditions": "one partner purified"}, "[4]": {"biological_target": "DENV3 (Philippines) virion (Dengue virus 3 Philippines (H87/1956 …, UniProt P27915))", "assay": "ELISA; virion capture ELISA: virions captured on plates coated with 4G2 antibody; purified mAbs in 5-fold serial dilutions from 100 ug/mL, 1 hour at 37°C; HRP anti-human Ig; OD450", "conditions": "one partner purified"}, "[5]": {"biological_target": "DENV2 (New Guinea C) virion (Dengue virus 2 New Guinea C, UniProt P14340, strain)", "assay": "ELISA; virion capture ELISA: virions captured on plates coated with 4G2 antibody; purified mAbs in 5-fold serial dilutions from 100 ug/mL, 1 hour at 37°C; HRP anti-human Ig; OD450", "conditions": "one partner purified"}, "[6]": {"biological_target": "T5, ZIKV H/PF/2013 envelope (E) protein …", "assay": "BLI; Octet Red96, 25°C, PBS pH 7.4; mAb captured on anti-human Ig AR2G tips; ZIKV E protein dimer 50-0.78 ug/mL; fast kinetic components of the heterogeneous ligand model fit; single measurement", "conditions": "both partners purified"}, "ZIKV H/PF/2013 virion": {"biological_target": "T8, ZIKV H/PF/2013 virion (Zika virus H/PF/2013, strain)", "T8 construct": "also called ZIKV H/PF/2013 particles; Zika virion; copies: 180 +", "assay": "cryo-EM structure; purified virus and DH1017.Fab incubated on ice for 2 hours; single particle reconstruction with icosahedral symmetry, 4104 particles, 5.3 Å", "conditions": "both partners purified"}}, "data": [{"binder": "DH1017.IgM (antibody, V domains shown, also called mAb DH1017.IgM; copies: 10 + 10) VH: QVQLQESGPGLVKPSQTLSLTCAVSGGSISSGDSYWSWIRQHPGKGLEWIGSIYYSGSTYYNPSLKSRVTIPIDTSKNQFSLKLSSVTAADTAVYYCARHVGDLRVNDAFDIWGQGTMVTVSS VL: QSVLTQPPSVSAAPGQKVTISCSGSSSNIGNNFVSWYQRLPGTPPKLLIYDSDKRPSGIPDRFSGSKSGTSATLGITGLQTGDEGDYYCGTWDRSLSVVVFGGGTKLTVL", "values": [{"measurement": "binding result", "setting": "SSB", "result": "no binding (tested: 10 ug/ml (start of the dilution series))"}, {"measurement": "binding result", "setting": "Centromere B", "result": "no binding (tested: 10 ug/ml (start of the dilution series))"}, {"measurement": "binding result", "setting": "Jo-1", "result": "no binding (tested: 10 ug/ml (start of the dilution series))"}, {"measurement": "binding result", "setting": "Scl-70", "result": "no binding (tested: 10 ug/ml (start of the dilution series))"}, {"measurement": "EC50", "setting": "[1]", "result": 0.202, "unit": "nM"}, {"measurement": "EC50", "setting": "[2]", "result": 0.091, "unit": "nM"}, {"measurement": "binding result", "setting": "DENV4 (H241) virion", "result": "no binding (tested: 100 ug/mL (start of the dilution series))"}, {"measurement": "EC50", "setting": "[3]", "result": 0.022, "unit": "nM"}, {"measurement": "binding result", "setting": "DENV1 (Hawaii) virion", "result": "no binding (tested: 100 ug/mL (start of the dilution series))"}, {"measurement": "binding result", "setting": "[4]", "result": "no binding (tested: 100 ug/mL (start of the dilution series))"}, {"measurement": "binding result", "setting": "[5]", "result": "no binding (tested: 100 ug/mL (start of the dilution series))"}, {"measurement": "Kd", "setting": "[6]", "result": 106, "unit": "nM"}, {"measurement": "koff", "setting": "[6]", "result": 0.0103, "unit": "s⁻¹"}]}, {"binder": "DH1017.IgG (antibody, V domains shown, IgG1; also called recombinant DH1017.IgG; IgG1 isoform of DH1017; source: Expi 293i cells, co-transfected heavy and light chain plasmids, purified (Protein A resin)) VH: QVQLQESGPGLVKPSQTLSLTCAVSGGSISSGDSYWSWIRQHPGKGLEWIGSIYYSGSTYYNPSLKSRVTIPIDTSKNQFSLKLSSVTAADTAVYYCARHVGDLRVNDAFDIWGQGTMVTVSS VL: QSVLTQPPSVSAAPGQKVTISCSGSSSNIGNNFVSWYQRLPGTPPKLLIYDSDKRPSGIPDRFSGSKSGTSATLGITGLQTGDEGDYYCGTWDRSLSVVVFGGGTKLTVL", "values": [{"measurement": "binding result", "setting": "SSB", "result": "no binding (tested: 10 ug/ml (start of the dilution series))"}, {"measurement": "binding result", "setting": "Centromere B", "result": "no binding (tested: 10 ug/ml (start of the dilution series))"}, {"measurement": "binding result", "setting": "Jo-1", "result": "no binding (tested: 10 ug/ml (start of the dilution series))"}, {"measurement": "binding result", "setting": "Scl-70", "result": "no binding (tested: 10 ug/ml (start of the dilution series))"}, {"measurement": "EC50", "setting": "[1]", "result": 0.463, "unit": "nM"}, {"measurement": "EC50", "setting": "[2]", "result": 0.929, "unit": "nM"}, {"measurement": "EC50", "setting": "[3]", "result": 0.112, "unit": "nM"}, {"measurement": "Kd", "setting": "[6]", "result": 123, "unit": "nM"}, {"measurement": "koff", "setting": "[6]", "result": 0.0091, "unit": "s⁻¹"}]}, {"binder": "DH1017.Fab (Fab, V domains shown, also called DH1017 Fab fragment; Fab DH1017; source: Expi 293i cells, co-transfected heavy and light chain plasmids, purified (LambdaFabSelect agarose beads)) VH: QVQLQESGPGLVKPSQTLSLTCAVSGGSISSGDSYWSWIRQHPGKGLEWIGSIYYSGSTYYNPSLKSRVTIPIDTSKNQFSLKLSSVTAADTAVYYCARHVGDLRVNDAFDIWGQGTMVTVSS VL: QSVLTQPPSVSAAPGQKVTISCSGSSSNIGNNFVSWYQRLPGTPPKLLIYDSDKRPSGIPDRFSGSKSGTSATLGITGLQTGDEGDYYCGTWDRSLSVVVFGGGTKLTVL", "values": [{"measurement": "binding result", "setting": "SSB", "result": "no binding (tested: 10 ug/ml (start of the dilution series))"}, {"measurement": "binding result", "setting": "Centromere B", "result": "no binding (tested: 10 ug/ml (start of the dilution series))"}, {"measurement": "binding result", "setting": "Jo-1", "result": "no binding (tested: 10 ug/ml (start of the dilution series))"}, {"measurement": "binding result", "setting": "Scl-70", "result": "no binding (tested: 10 ug/ml (start of the dilution series))"}, {"measurement": "EC50", "setting": "[1]", "result": 1.24, "unit": "nM"}, {"measurement": "EC50", "setting": "[2]", "result": 25.1, "unit": "nM"}, {"measurement": "stoichiometry N", "setting": "ZIKV H/PF/2013 virion", "result": 1.5, "unit": "Fab per asymmetric unit"}]}]}
